Assay results published in the Human Domainome abundance scans (Beltran et al. 2025).

B1: Transcription elongation factor A N-terminal and central domain-containing protein, residues 30 to 77; numbered along this chain, Q8N8B7 (parent)
chain: LTELETIYVTKEHLQETDVVRAVYRVLKNCPSVALKKKAKCLLSKWKA

Variants of: B1
Assay: abundance fitness (aPCA) (normalised: wild type 0, dead -1); higher = more abundant; growth selection in yeast, the domain comes from the species named
Conditions: Homo sapiens

Abundance fitness: each site, then its substitutions
Q15: Y -0.562
E16: A -0.017 | C -0.03 | D 0.043 | F 0.028 | G -0.008 | H -0.153 | I -0.28 | K -0.152 | M 0.041 | N -0.187 | P 0.009 | Q 0.285 | R 0.123 | S 0.021 | T -0.116 | V -0.279 | W -0.414 | Y -0.004
T17: A -0.43 | C -0.103 | D -0.368 | E -0.315 | F -0.852 | G -0.092 | H -0.37 | I -0.654 | K -0.14 | L -0.892 | M 0.192 | N 0.149 | P 0.057 | Q -0.649 | R -0.099 | S -0.103 | V -0.526 | W -0.142 | Y -0.784
D18: A 0.098 | C -0.09 | E -0.382 | F 0.169 | G 0.354 | H 0.049 | I -0.263 | K -0.136 | L -0.077 | M 0.384 | P -0.154 | Q -0.07 | R 0.24 | S 0.353 | T 0.158 | V -0.094 | W 0.172 | Y 0.057
V19: A -0.022 | D -0.72 | E -0.618 | F -0.362 | G -0.094 | H -0.454 | I -0.133 | K -0.39 | L -0.121 | M 0.037 | N -0.695 | P -0.261 | Q -0.464 | R 0.037 | S -0.481 | T -0.347 | W -0.01 | Y -0.595
V20: A 0.015 | C -0.034 | D -0.215 | E -0.561 | F 0.071 | G -0.109 | H -0.491 | L 0.113 | N -0.741 | P -0.19 | Q -0.633 | S -0.594 | T -0.414 | W 0.07 | Y -0.301
R21: A -0.457 | C -0.468 | D -0.759 | E -0.647 | F -0.914 | G -0.042 | H -0.067 | I -1.03 | K -0.246 | L -0.88 | M -0.333 | N -0.113 | P -0.514 | T -0.413 | V -0.904 | W -0.549 | Y -0.601
A22: C -0.206 | D -0.209 | E -0.328 | F -0.308 | G -0.046 | H -0.328 | I -0.419 | K 0.082 | L -0.119 | M -0.053 | N -0.099 | P -0.143 | Q -0.082 | R 0.277 | S -0.007 | V -0.37 | W 0.256 | Y -0.074
V23: A -0.453 | D -0.578 | E -0.584 | F -0.021 | G -0.72 | H -0.81 | I 0.189 | K -0.573 | L 0.041 | M -0.087 | N -1.04 | P -0.833 | Q -0.901 | R -0.426 | S -0.54 | T -0.122 | W -0.009
Y24: A 0.019 | C -0.003 | D -0.217 | F 0.172 | G -0.345 | H -0.468 | I 0.105 | K 0.219 | L 0.205 | M 0.315 | N -0.362 | P -0.72 | Q -0.223 | R 0.277 | V 0.11 | W 0.406
R25: A -0.326 | C -0.92 | D -0.443 | E -0.743 | F -0.811 | G -0.136 | K -0.364 | L -0.71 | N -0.091 | P -0.812 | Q -0.038 | S -0.257 | T -0.528 | V -0.849 | W -0.837 | Y -0.805
V26: A 0.154 | C 0.15 | D -0.727 | E -0.836 | F 0.126 | G -0.095 | I -0.105 | K -0.149 | L -0.172 | M 0.206 | N -0.152 | P -0.131 | Q -0.183 | R 0.211 | S -0.206 | T 0.279 | W 0.447 | Y 0.491
L27: A -0.593 | C -0.994 | D -0.901 | E -0.932 | F -0.754 | G -0.88 | I -0.053 | K -0.845 | N -0.846 | P -0.444 | Q -0.648 | R -0.848 | S -0.966 | T -0.883 | V -0.445 | W -0.031 | Y -0.352
K28: A -0.509 | D -0.789 | E -0.679 | F -0.247 | G -0.402 | H -0.435 | I -0.149 | L -0.237 | M -0.749 | N -0.445 | P -0.379 | Q -0.734 | R -0.033 | S -0.368 | T -0.169 | V -0.142 | W 0.04
N29: A -0.086 | C 0 | D -0.193 | E -0.536 | F -0.09 | G -0.282 | I -0.167 | K -0.029 | L 0.004 | M 0.052 | P -0.904 | Q -0.259 | R 0.144 | S -0.144 | T 0.024 | V -0.186 | Y -0.466
C30: A -0.338 | D -0.442 | E -0.935 | F 0.121 | G 0.012 | H -0.743 | I 0.204 | L 0.075 | M 0.035 | N -0.274 | P -0.244 | Q -0.189 | S -0.514 | V 0.062 | W 0.119 | Y -0.632
P31: A 0.119 | E -0.357 | F 0.511 | G 0.298 | H -0.349 | I 0.371 | K 0.291 | L 0.355 | M 0.457 | N -0.016 | Q -0.017 | R 0.188 | S 0.263 | T 0.341 | V 0.337 | W 0.382 | Y -0.021
S32: A 0.103 | C 0.367 | D -0.389 | F 0.211 | H 0.131 | I 0.27 | K -0.155 | L 0.355 | N -0.017 | P 0.039 | Q -0.439 | R 0.022 | T -0.022 | V 0.289
V33: A -0.016 | C 0.041 | D -0.086 | E -0.208 | F 0.427 | G 0.012 | H -0.527 | L 0.174 | M -0.027 | N -0.279 | P 0.129 | Q 0.007 | R 0.155 | S 0.089 | T -0.146 | W -0.096 | Y -0.327
A34: C 0.149 | D 0.097 | E -0.308 | F -0.305 | G -0.028 | H -0.057 | I -0.826 | K 0.148 | L -0.279 | M -0.163 | N 0.266 | P -0.378 | Q -0.464 | T -0.161 | V -0.489 | W -0.176 | Y -0.174
L35: F -0.293 | S -0.8
K36: A -0.063 | C -0.225 | E -1.32 | F -0.007 | G -0.109 | H -0.633 | I -0.152 | L -0.137 | M 0.085
